Test results from patent US20250326823A1.

Key:
Experiment in all cases: cell-based or functional assay
[1] = target: SARS-CoV-2 spike (S) protein, variant JN.1.13.1 (SARS-CoV-2)
[2] = target: SARS-CoV-2 spike (S) protein, variant LB.1 (SARS-CoV-2)
[3] = target: SARS-CoV-2 spike (S) protein, variant KP.2.3 (SARS-CoV-2)
[4] = target: SARS-CoV-2 spike (S) protein, variant KP.2 (SARS-CoV-2)
[5] = target: SARS-CoV-2 spike (S) protein, variant BA.2.86 (SARS-CoV-2)
[6] = target: SARS-CoV-2 spike (S) protein, variant LB.1 (SARS-CoV-2); remark: listed apart in the source
[7] = target: SARS-CoV-2 spike (S) protein, variant XEC (SARS-CoV-2)
[8] = target: SARS-CoV-2 spike (S) protein, D614G (SARS-CoV-2) (UniProt P0DTC2)
[9] = target: SARS-CoV-2 spike (S) protein, variant CH.1.1 (SARS-CoV-2)
[10] = target: SARS-CoV-2 spike (S) protein, variant KP.3.1.1 (SARS-CoV-2)
[11] = target: SARS-CoV-2 spike (S) protein, variant KP.2.3 (SARS-CoV-2); remark: listed apart in the source
[12] = target: SARS-CoV-2 spike (S) protein, variant EG.5.1 (SARS-CoV-2)
[13] = target: SARS-CoV-2 spike (S) protein, variant JN.1 (SARS-CoV-2)
[14] = target: SARS-CoV-2 spike (S) protein, variant KP.2 (SARS-CoV-2); remark: listed apart in the source
[15] = target: SARS-CoV-2 spike (S) protein, variant KP.3 (SARS-CoV-2)
[16] = target: SARS-CoV-2 spike (S) protein, variant BA.4/5 (SARS-CoV-2) (UniProt P0DTC2)
[17] = target: SARS-CoV-2 spike (S) protein, variant FL.1.5.1 (SARS-CoV-2)
[18] = target: SARS-CoV-2 spike (S) protein, variant XBB.1 (SARS-CoV-2) (UniProt P0DTC2)
[19] = target: SARS-CoV-2 spike (S) protein, variant BA.1 (SARS-CoV-2) (UniProt P0DTC2)
[20] = target: SARS-CoV-2 spike (S) protein, variant JF.1 (SARS-CoV-2)
[21] = target: SARS-CoV-2 spike (S) protein, variant XBC.1 (SARS-CoV-2) (UniProt P0DTC2)
[22] = target: SARS-CoV-2 spike (S) protein, variant BQ.1.1 (SARS-CoV-2) (UniProt P0DTC2)
[23] = target: SARS-CoV-2 spike (S) protein, variant HV.1 (SARS-CoV-2)
[24] = target: SARS-CoV-2 spike (S) protein, variant HK.3 (SARS-CoV-2)
[25] = target: SARS-CoV-2 D614G spike (S) protein (SARS-CoV-2) (UniProt P0DTC2)
[26] = target: SARS-CoV-2 spike (S) protein, variant XBB.1.5 (SARS-CoV-2) (UniProt P0DTC2)
[27] = target: SARS-CoV-2 spike (S) protein, variant XBB.1.16 (SARS-CoV-2) (UniProt P0DTC2)

ADG20 (antibody) gave a pseudovirus neutralization IC50 [1] of over 67 nM, a pseudovirus neutralization IC80 [1] of over 67 nM and a pseudovirus neutralization IC50 [2] of over 67 nM. The pseudovirus neutralization IC80 [2] was over 67 nM, the pseudovirus neutralization IC50 [3] was over 67 nM and the pseudovirus neutralization IC80 [3] was over 67 nM. It also gave a pseudovirus neutralization IC50 [4] of over 67 nM, a pseudovirus neutralization IC80 [4] of over 67 nM and a neutralization IC50 [5] of over 10 µg/mL. The neutralization IC50 [6] was over 10 µg/mL, the neutralization IC50 [7] was over 10 µg/mL and the neutralization IC50 [8] was 0.003 µg/mL. For the same substance, the neutralization IC50 [9] was 2.06 µg/mL, the neutralization IC50 [10] was over 10 µg/mL and the neutralization IC50 [11] was over 10 µg/mL. For the same substance, the neutralization IC50 [12] was over 10 µg/mL, the neutralization IC50 [13] was over 10 µg/mL and the neutralization IC50 [14] was over 10 µg/mL. It also gave a neutralization IC50 [15] of over 10 µg/mL.

AZD3152 (antibody) was tested, and the pseudotyped neutralization potency IC50 [16] was 0.102 nM, the pseudotyped neutralization potency IC80 [16] was 0.266 nM and the IC50, pseudovirus neutralization [17] was over 67 nM. For the same substance, the IC80, pseudovirus neutralization [17] was over 67 nM, the pseudotyped neutralization potency IC50 [18] was 0.096 nM and the pseudotyped neutralization potency IC80 [18] was 0.302 nM. For the same substance, the pseudotyped neutralization potency IC50 [19] was 0.123 nM, the pseudotyped neutralization potency IC80 [19] was 0.313 nM and the IC50, pseudovirus neutralization [20] was over 67 nM. It also gave an IC80, pseudovirus neutralization [20] of over 67 nM, a pseudotyped neutralization potency IC50 [21] of 0.0322 nM and a pseudotyped neutralization potency IC80 [21] of 0.209 nM. The pseudotyped neutralization potency IC50 [22] was 0.392 nM, the pseudotyped neutralization potency IC80 [22] was 0.944 nM and the IC50, pseudovirus neutralization [23] was over 67 nM. It also gave an IC80, pseudovirus neutralization [23] of over 67 nM, an IC50, pseudovirus neutralization [24] of over 67 nM and an IC80, pseudovirus neutralization [24] of over 67 nM. For the same substance, the pseudovirus neutralization IC50 [25] was 0.015 µg/mL, the pseudotyped neutralization potency IC50 [26] was 0.12 nM and the pseudotyped neutralization potency IC80 [26] was 0.308 nM. The pseudotyped neutralization potency IC50 [27] was 0.092 nM, the pseudotyped neutralization potency IC80 [27] was 0.381 nM and the neutralization IC50 [5] was 0.053 µg/mL. For the same substance, the neutralization IC50 [6] was over 10 µg/mL, the neutralization IC50 [7] was over 10 µg/mL and the neutralization IC50 [8] was 0.015 µg/mL. For the same substance, the neutralization IC50 [9] was 0.045 µg/mL, the neutralization IC50 [10] was over 10 µg/mL and the neutralization IC50 [11] was over 10 µg/mL. The neutralization IC50 [12] was over 10 µg/mL, the neutralization IC50 [13] was 0.766 µg/mL and the neutralization IC50 [14] was over 10 µg/mL. For the same substance, the neutralization IC50 [15] was over 10 µg/mL.
